Laboratory results published in the supplement of paper PMC12042874.
± gives the uncertainty stated by the source.

Experiment: amyloid nucleation score (Sup35N fusion, yeast selection) (log enrichment); library NNK3; higher = more nucleation; inactive = no reads after selection
How it was run: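 The nucleation score, computed with DiMSum, is the log enrichment of output over input reads, centred on the mode score of non-aggregating sequences. Sequences with under 100 input reads were dropped. Reads were generated by Illumina sequencing of plasmid inserts from psi-negative yeast with Sup35N fused to peptides of 20 random codons, induced with 100 μM copper sulfate for 24 hours and grown 7 days at 30°C on medium lacking adenine and uracil.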

Row | Substance | amyloid nucleation score
1 | AACHINNICKSLVL | inactive
2 | AANLDYSRLLEVLE | inactive
3 | AAPCFVKLLHGLVVRVQVVM | inactive
4 | AATYTTYHLESSNVYSFNFW | 2.96 ± 0.048
5 | AAYAALQMSK | inactive
6 | AAYADR | 0.008 ± 0.48
7 | ACFLIYYLR | inactive
8 | ACGFSFF | -0.264 ± 0.98
9 | ACLFCLGDWEGFVSD | inactive
10 | ACRGLVDVNNWLSGYGIRIG | inactive
11 | ACTLLCFRIAQLEFLWVRVD | inactive
12 | ACVRKIIKVGYFYERISIRV | inactive
13 | ACVSGIIFLLREQLLKMSGI | inactive
14 | ACYFWFNINIEHAR | 1.78 ± 0.11
15 | ADCGHLTYLSSNSRSLGRRK | 0.197 ± 1
16 | ADERRVIR | inactive
17 | ADIRFKMRENDMFWSNGWGH | inactive
18 | ADWYWFMAMQRNNLL | inactive
19 | AEGLCCMANLWSCAGSRTYT | 0.947 ± 0.13
20 | AESEVDKCLDRGYGAEKTCT | inactive
21 | AEWFAKLLASTMGLIFERRW | inactive
22 | AFAFYSD | inactive
23 | AFKGRLLG | inactive

Row | Substance | amyloid nucleation score
24 | AFLGEEVNSTLLKS | inactive
25 | AFLSMSGNLLVVYSGEGGSP | -0.027 ± 0.35
26 | AFQMCATGRRIDTGDVSFVV | inactive
27 | AFRGCSSLYS | inactive
28 | AFRTFSFLGITS | inactive
29 | AFTHVTSVMTVQDSLGLCLL | inactive
30 | AFVDAQQVNGLYGWYDSKCD | inactive
31 | AFVRMLW | 1.49 ± 0.13
32 | AFYCVSGIDYVS | inactive
33 | AGAVYVTAPLIAREDVVACY | inactive
34 | AGFRKTMWCIQPVSFLLLKF | 1.74 ± 0.1
35 | AGGAMGVHRCPLLS | inactive
36 | AGNAFVDR | inactive
37 | AGVIAWVYSSG | inactive
38 | AGVVHRWGLQCFSLNFECGC | 2.08 ± 0.079
39 | AHFLLCNLA | inactive
40 | AHGFLSVFV | 0.92 ± 0.12
41 | AHITRGNKSGAVFASCRTWS | inactive
42 | AHKIVFELTYTVLS | inactive
43 | AHLTSVYVKTPSFEINISNK | inactive
44 | AHSRWVSQCDITR | inactive
45 | AHWSEYDAKFTKRLV | inactive
46 | AICVLRSMKLLYQVWTW | inactive

Row | Substance | amyloid nucleation score
47 | AIIVCDC | inactive
48 | AIIVQLIDLLMRPARPVFVE | inactive
49 | AIPLYWIEFRVRKLSSLFLQ | inactive
50 | AIVCMHYQVVHCVKVSTCCY | inactive
51 | AKAEC | inactive
52 | AKARMNGEDGARLTSMHSLY | inactive
53 | AKMNYKLWRDVA | inactive
54 | AKTSRMNFKNNFMCQGCKWS | -0.604 ± 0.88
55 | AKVRLDGSIGEVHFMELVSY | inactive
56 | ALCCVRPFGNEDKREVMYSN | 0.604 ± 0.24
57 | ALDMVLYL | inactive
58 | ALGIICVGLAFDGSLDLTS | 1.25 ± 0.15
59 | ALIKFLEFKGRSAWSMRFIA | inactive
60 | ALIYNATGLTYF | inactive
61 | ALLFHLG | inactive
62 | ALMRVSSLCHLSGKVCLTLA | inactive
63 | ALNFPYSSRVFYFKDSAHAF | inactive
64 | ALNWISYREMHIFIAYFADS | inactive
65 | ALSNYVFLEVTLQTWVVIEV | inactive
66 | ALSYLSVLRSMLSRVVLCYL | inactive
67 | ALVCYK | inactive
68 | AMCALVSIRP | inactive
69 | AMFFYRWRCVGTGSFVMTGV | inactive

Row | Substance | amyloid nucleation score
70 | AMILVRVYGVKRVWAYLLVW | inactive
71 | AMKPMKNRSASLVGN | inactive
72 | AMLLGFLGCGCKLHACCDY | inactive
73 | AMMHNIILFKFVLGYVLMSR | inactive
74 | ANCSWWSWESMNCCYIGWIF | 1.54 ± 0.071
75 | ANGNNSLTATLTNAVD | inactive
76 | ANKSCGHVDWDIGESYMARL | inactive
77 | ANLIIVSVHFPRITTCYNNP | 1.95 ± 0.068
78 | ANRKSRVKSEEWAEVNGCWG | inactive
79 | ANSSRDMCSLLVLVRGTQ | -0.385 ± 0.96
80 | ANSWIILHSNHFLQFVGIAS | inactive
81 | ANSWSMLHVECFYML | 2.44 ± 0.058
82 | ANVCGVL | inactive
83 | ANVRMS | inactive
84 | APDFATIFITRWGDIQTLLV | inactive
85 | APENKVYVRAQVKTACKFRG | 0.213 ± 0.81
86 | APFRMLAFGMWEALMAGSNS | inactive
87 | APRRHVKGDSHIRWCVRDR | inactive
88 | AQAVHAEVVQFILYFGESPL | 2.47 ± 0.08
89 | AQFGQTWFANFTSVFYCWSE | 2.06 ± 0.064
90 | AQGVTHLWEARNLWVWVEDQ | -0.316 ± 0.51
91 | ARATALAVFCIGTDYGSIES | -0.319 ± 0.37
92 | ARLEMVFLPSPIFVNRPGNA | inactive

Row | Substance | amyloid nucleation score
93 | ARLSEAVLGNVSDIGRVCNL | inactive
94 | ARQYAIRWMWSVVIDGGEKS | inactive
95 | ARYETRMYKFKNTPGVAERR | inactive
96 | ARYRHGFTALRND | inactive
97 | ASFLVYGP | inactive
98 | ASGVATSFGFRLWSCVEDIE | inactive
99 | ASLRDAPILYDASE | inactive
100 | ASRKVTRVVMHINLRLWYET | inactive
101 | ASRPFFRPVRQVSEVLPGQW | 0.058 ± 1.1
102 | ASSLVVVCDAMSEASVLNKG | inactive
103 | ASTLLHYCLLNSGYEWSGQC | 0.251 ± 0.81
104 | ATEDPKLESGCVAEIVPFRG | -0.481 ± 1.4
105 | ATELYLGVICNKMRW | inactive
106 | ATGDNNLGIMAMALYT | inactive
107 | ATNLSYLNSAQVWLLT | inactive
108 | ATYAGSVITGLCEDTLYRNC | inactive
109 | AVCCCGRNIHMRSCRPGTTL | 0.531 ± 0.16
110 | AVDLNVTLQWVCSRGRRWVF | 0.051 ± 0.3
111 | AVFGCFWFAMGLSFLYAKSL | inactive
112 | AVHFGLYFLMRVITMC | inactive
113 | AVIFFYRVISFLRWSFTLPV | inactive
114 | AVLKILFVRPCYVINMSLKY | 0.199 ± 0.64
115 | AVMLREITNIRTKRSRNAMM | inactive

Row | Substance | amyloid nucleation score
116 | AVNCESSCCECYGTFMDKPV | inactive
117 | AVRVEVLGLWYHLKCCWCFL | -0.755 ± 1.9
118 | AVSLTW | inactive
119 | AWAVEATRFILLRWGQGTWD | -0.247 ± 1.3
120 | AWCKGV | inactive
121 | AWMCIHLYICCMILCGRRGW | inactive
122 | AWMVFCPCKMCMCRCYL | 1.41 ± 0.073
123 | AWSVIMCFIWNRCKRRSS | inactive
124 | AYADHHYRAGLRFPAGEVYW | inactive
125 | AYCGACFNLSAYTSKCLELM | inactive
126 | AYGRVTMCIGWKDPYGRCL | 0.638 ± 0.31
127 | AYIDNRSYVCDALKCLW | 2.92 ± 0.055
128 | AYKMTFWVQNYVFVYSFLFV | 0.419 ± 0.23
129 | AYNLSLNYDGHSSYWYFHTT | -0.134 ± 0.38
130 | AYQCHDDVVWWRCQMASCS | inactive
131 | AYRAITGSCVMSEVRGAWRL | inactive
132 | AYRRKLISGFIWERFLFRCG | inactive
133 | AYRYTHVCDMVLKWAVCCFY | inactive
134 | AYSSQSTCTFCASIFSDSKI | 2.68 ± 0.077
135 | CACIPNFPCKSYHYWRSCNI | inactive
136 | CAIRDS | -0.647 ± 0.41
137 | CANCMNNVCVSCGCSLQLTL | 2.89 ± 0.054
138 | CAQARSRFTYQSAHR | inactive

Row | Substance | amyloid nucleation score
139 | CAQTYPIRMYS | inactive
140 | CARRNLAVNYKYWFVGEHYI | inactive
141 | CAVGISLRPFFMISLQLSYL | inactive
142 | CCARGGRVCRQLGLVSYTNV | inactive
143 | CCAYFVGLGCVQLTKWFSLL | inactive
144 | CCEFC | inactive
145 | CCFNMW | 1.46 ± 0.09
146 | CCFPVVRKPFG | inactive
147 | CCGQIADSFLPKSSRGEVRN | inactive
148 | CCITFLLSDLAMSYYVRYNR | 0.484 ± 0.12
149 | CCIYQHIFYMRTYCIRT | inactive
150 | CCMLC | -0.309 ± 1
151 | CCSSCVWGRVFRSSAMPPRI | inactive
152 | CCVDPLAELLICMTALIASR | inactive
153 | CCYATSLYINDDATIIVNLM | 2.74 ± 0.072
154 | CDAAWPVNSPFWYLFLWC | inactive
155 | CDFGFRMEEESLQRR | inactive
156 | CDFYVNGTGPSETRWNSKEH | inactive
157 | CDIRFIYESYVSDNDGVLLH | inactive
158 | CDSTPYFLMGSWLG | inactive
159 | CDSTSITWGHVLWFYINYWM | inactive
